Test results as given in US20250188193A1 (ROCKEFELLER UNIVERSITY, published 2025).

Legend:
[1] = target: T1, anti-NP antibody 3B62, afucosylated IgG (monomeric, or as immune complex with NP-BSA) (chain 1 pos 82 (Asn297 EU): afucosylated N-glycan; the Fc is a disulfide-linked homodimer; in FIG. 11E it is complexed with NP-BSA through the Fab arms); test: competition ELISA: nanobody pre-complexed with monomeric afucosylated 3B62, then captured on coated FcγRI; the blocked ligand is FcγRI
T1 construct: Immune complexes made with NP-BSA (27 conjugations) at a 10:1 molar ratio; also called monomeric 3B62; IgG immune complexes
Description: Recombinant FcγR ectodomains were expressed in Expi-293F and purified with Ni-NTA resin as in previously described protocols (S. Chakraborty et al., Sci. Transl. Med., eabm7853 (2022)). […] Plates were then blocked with PBS plus 2% (w/v) BSA. IgG immune complexes were prepared by incubation of an anti-NP (4-hydroxy-3-nitrophenylacetyl) antibody 3B62 with NP-BSA (27 conjugations) at a 10:1 molar ratio for 1h at 4° C. […] IgG immune complexes or monomeric 3B62 were brought to a concentration of 20 ug ml⁻¹ or 2 μg/ml respectively and pre-complexed at a 1:1 (v/v) ratio for 1h at room temperature and then captured on FcγR-coated plates. Following 1h incubation, bound IgG was detected using a 1:5000 dilution of horseradish peroxidase (HRP)-conjugated goat F(ab′)₂ anti-human IgG (H+L) (Jackson Immunoresearch). Plates were developed with TMB (3,3′,5,5′-tetramethylbenzidine) two-component peroxidase substrate kit. Reactions were quenched with 1M phosphoric acid. Absorbance at 450 nm was recorded using a SpectraMax Plus spectrophotometer (Molecular Devices). Background absorbance was subtracted for samples, and % maximum binding was determined against an IgG or immune complex only control.

[2] = target: T2, aglycosylated 3B62 N297A mutant (aglycosylated (no N-glycan after N297A); the Fc is a disulfide-linked homodimer); test: SPR (Biacore T200)
T2 construct: 297 is an EU position, not a position on the UniProt entry; also called aglycosylated N297A IgG1 mutant; aglycosylated IgG
Description: Traces are raw data, while 1:1 Langmuir global kinetic fits are shown in black.
Surface Plasmon Resonance (SPR) was performed on a Biacore T200 machine (Cytiva Life Sciences). In some experiments, purified IgG glycoforms diluted in HBS-EP+ were immobilized on the surface of a Protein A or Protein G CM5 sensor chip at 1000 RU (˜50 nM). Purified nanobodies were flowed over IgG-bound sensor chips at the indicated concentrations at 30 uL/minute for 60 seconds, followed by 600 seconds of dissociation. Sensor chips were regenerated with 10 mM Glycine-HCl pH 1.5.

[3] = target: T3, IgG1 S2G2 glycoform (antibody clone not named); test: ELISA with B7; the concentration of the IgG1 glycoform is varied
T3 construct: also called afucosylated form of IgG1

[4] = target: T4, Rituximab G2 (galactosylated afucosylated glycoform); test: SPR (Biacore T200), 1:1 Langmuir kinetic fit
T4 construct: Whole IgG1; also called G2-Rituximab; G2 glycoform of IgG1 Fc

B1: X0 (VHH)
VHH: QVQLQESGGGLVQAGGSLRLSCAASPGISRYKTMGWYRQAPGKERSFVAAITWGGLTYYADSVKGRFTVSRDNAKNTVYLQMNSLKPEDTAVYYCSVDGGTRADPYHYYWGQGTQVTVSS
notes: also called clone X0; not shown: His tag and AviTag from the pET26-b(+) construct
IC50 (read off the curve) [1]: ~1 µM

B2: mC11 (VHH)
VHH: QVQLQESGGGLVQAGGSLRLSCAASPGIYRYKTIAWYRQAPGKERSFVAAITWGGLTYRADSVKGRFTVSRDNAKNTVYLQMNSLKPEDTAVYYCSVDGGTRAQPVHYYWGQGTQVTVSS
notes: also called clone mC11; not shown: His tag and AviTag from the pET26-b(+) construct
IC50 (read off the curve) [1]: ~0.4 µM

B3: B7 (VHH, not shown: small tags and cut ends)
VHH: QVQLQESGGGLVQAGGSLRLSCAASGGISRYKTMGWYRQAPGKEREFVAGITWGGSTYYADSVKGRFTISRDNAKNTVYLQMNSLKPEDTAVYYCSVDGGTYADPYHYYWGQGTQVTVSS
notes: also called clone B7; nanobody B7
binding result [2]: no binding (tested: top concentration 256 nM)
EC50 (read off the curve) [3]: ~0.4 mg/L

B4: C11 (VHH, not shown: small tags and cut ends)
VHH: QVQLQESGGGLVQAGGSLRLSCAASGYISRYHTMGWYRQAPGKEREFVAGITWGGSTYYADSVKGRFTISRDNAKNTVYLQMNSLKPEDTAVYYCAVDGGTYADPYHYYWGQGTQVTVSS
notes: also called clone C11; C11 parental clone
Kd [4]: 22.8 µM
